Measurements reported in patent publication US20260216326A1 (PROMETHEUS BIOSCIENCES, published 2026).
Substitutions are numbered along the chain they refer to.

T1: TL1A in human blood (human, UniProt O95150 72-251, limits assumed)
T1 sequence (looked up): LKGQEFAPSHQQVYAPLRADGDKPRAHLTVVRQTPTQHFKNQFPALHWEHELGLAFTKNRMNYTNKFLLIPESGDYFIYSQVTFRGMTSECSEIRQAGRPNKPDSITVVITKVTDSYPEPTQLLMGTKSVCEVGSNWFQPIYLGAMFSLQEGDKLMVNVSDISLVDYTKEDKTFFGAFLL

T2: human TL1A (human, UniProt O95150 72-251, limits assumed)
T2 construct: also called tumor necrosis factor-like cytokine 1A; TNFSF15
T2 sequence (looked up): T1 sequence (looked up)

B1: A147 (antibody, IgG1, V domains shown)
VH: QVQLVQSGAEVKKPGASVKVSCKASGFDIQDTYMHWVKQRPGQGLEWMGRIEPASGHIKYDPKFQGRVTMTRDTSTSTVYMELSSLRSEDTAVYYCARSGGLPDWWGQGTTVTVSS
VL: EIVLTQSPGTLSLSPGERATLSCRASSSVSYMYWYQQKPGQAPRPLIYATSNLASGIPDRFSGSGSGTDFTLTISRLEPEDFAVYYCQQWEGNPRTFGGGTKLEIK
B2: A217 (antibody, IgG1, V domains shown)
VH: B1 VH with E52D, I58T, G66V, M70I, W105V
VL: B1 VL
B3: A212 (antibody, IgG1, V domains shown)
VH: QVQLVQSGAEVKKPGASVKVSCKASGFDIQDTYMHWVRQRPGQGLEWIGRIDPASGHTKYDPKFQVRATITTDTSTSTAYLELSSLRSEDTAVYYCARSGGLPDVWGQGTTVTVSS
VL: B1 VL
B4: A220 (antibody, IgG1, V domains shown)
VH: B3 VH with R38K, I48M, A68V, I70M, T72R
VL: B1 VL with L46W
B5: A213 (antibody, IgG1, V domains shown)
VH: B3 VH with I48M, A68V, A79V, L81M
VL: B1 VL
B6: A187 (antibody, IgG1, V domains shown)
VH: B3 VH with R38K, A68V, T72R
VL: B1 VL with P45L
B7: A215 (antibody, IgG1, V domains shown)
VH: B3 VH with I48M, A68V
VL: B1 VL
B8: A202 (antibody, IgG1, V domains shown)
VH: B1 VH with Q1E, K38R, R40A, V68A
VL: B1 VL
B9: A194 (antibody, IgG1, V domains shown)
VH: B3 VH with Q1E
VL: B1 VL with L46W
B10: A214 (antibody, IgG1, V domains shown)
VH: B3 VH with I48M, A68V, T72R
VL: B1 VL
B11: A197 (antibody, IgG1, V domains shown)
VH: B1 VH with Q1E, R40A
VL: B1 VL with L46W
B12: A190 (antibody, IgG1, V domains shown)
VH: B3 VH with R38K, A79V
VL: B1 VL with P45L
B13: A223 (antibody, IgG1, V domains shown)
VH: B3 VH with Q1E
VL: B1 VL with P45L
B14: A204 (antibody, IgG1, V domains shown)
VH: B1 VH with Q1E, K38R, R40A, V79A
VL: B1 VL
B15: A222 (antibody, IgG1, V domains shown)
VH: B3 VH with R38K, I48M, A68V, T72R
VL: B1 VL
B16: A199 (antibody, IgG1, V domains shown)
VH: B3 VH with Q1E, R38K
VL: B1 VL
B17: A218 (antibody, IgG1, V domains shown)
VH: B3 VH with R38K, I48M, A68V, T72R, L81M
VL: B1 VL
B18: A193 (antibody, IgG1, V domains shown)
VH: B3 VH with Q1E, R38K
VL: B1 VL with L46W
B19: A195 (antibody, IgG1, V domains shown)
VH: B1 VH with Q1E, K38R, R40A, V68A, M70I, R72T
VL: B1 VL with L46W
B20: A201 (antibody, IgG1, V domains shown)
VH: B1 VH with Q1E, K38R, R40A, V68A, M70I, R72T
VL: B1 VL
B21: A191 (antibody, IgG1, V domains shown)
VH: B3 VH with R38K, L81M
VL: B1 VL with P45L
B22: A224 (antibody, IgG1, V domains shown)
VH: B1 VH with Q1E, R40A
VL: B1 VL
B23: A210 (antibody, IgG1, V domains shown)
VH: B1 VH with Q1E, K38R, R40A, V79A
VL: B1 VL with P45L
B24: A198 (antibody, IgG1, V domains shown)
VH: B1 VH with Q1E, K38R, R40A, V79A
VL: B1 VL with L46W
B25: A196 (antibody, IgG1, V domains shown)
VH: B1 VH with Q1E, K38R, R40A, V68A
VL: B1 VL with L46W
B26: A216 (antibody, IgG1, V domains shown)
VH: B3 VH with A68V, T72R
VL: B1 VL
B27: A211 (antibody, IgG1, V domains shown)
VH: B3 VH with R38K
VL: B1 VL
B28: A200 (antibody, IgG1, V domains shown)
VH: B3 VH with Q1E
VL: B1 VL
B29: A209 (antibody, IgG1, V domains shown)
VH: B1 VH with Q1E, R40A
VL: B1 VL with P45L
B30: A192 (antibody, IgG1, V domains shown)
VH: B3 VH with R38K, A79V, L81M
VL: B1 VL with P45L
B31: A188 (antibody, IgG1, V domains shown)
VH: B3 VH with R38K, A68V
VL: B1 VL with P45L
B32: A205 (antibody, IgG1, V domains shown)
VH: B3 VH with Q1E, R38K
VL: B1 VL with P45L
B33: A206 (antibody, IgG1, V domains shown)
VH: B3 VH with Q1E
VL: B1 VL with P45L
B34: A189 (antibody, IgG1, V domains shown)
VH: B3 VH with R38K, A68V, I70M
VL: B1 VL with P45L
B35: A203 (antibody, IgG1, V domains shown)
VH: B1 VH with Q1E, R40A
VL: B1 VL

Molecular target: T1, TL1A in human blood
Experiment: cell-based or functional assay

Row | Binder | % Inhibition at 1 nM Ig; interferon gamma release in human blood | % Inhibition at 10 nM Ig; interferon gamma release in human blood
1 | B1 | 51.3% | 72.4%
2 | B2 | 46% | 72.2%
3 | B3 | 46.8% | 71.2%
4 | B4 | 36.9% | 63.2%
5 | B5 | 48.6% | 69.8%

Molecular target: T1, TL1A in human blood
Experiment: cell-based or functional assay
Remark: another data set of the same source

Row | Binder | IC50 values, Mean; inhibition of interferon gamma release from multiple human donors
6 | B3 | 51.3
7 | B5 | 46.8

Molecular target: T2, human TL1A
Experiment: ELISA titration on plate-coated human TL1A, unpurified culture supernatant

Row | Binder | Kd
8 | B6 | 0.056 nM
9 | B2 | 0.043 nM
10 | B7 | 0.048 nM
11 | B8 | 0.059 nM
12 | B9 | 0.051 nM
13 | B10 | 0.051 nM
14 | B11 | 0.054 nM
15 | B3 | 0.05 nM
16 | B12 | 0.057 nM
17 | B13 | 0.062 nM
18 | B14 | 0.053 nM
19 | B15 | 0.06 nM
20 | B16 | 0.05 nM
21 | B4 | 0.05 nM
22 | B17 | 0.051 nM
23 | B18 | 0.055 nM
24 | B19 | 0.056 nM

Row | Binder | Kd
25 | B20 | 0.058 nM
26 | B21 | 0.057 nM
27 | B22 | 0.076 nM
28 | B23 | 0.07 nM
29 | B24 | 0.053 nM
30 | B25 | 0.054 nM
31 | B26 | 0.049 nM
32 | B27 | 0.058 nM
33 | B28 | 0.052 nM
34 | B29 | 0.058 nM
35 | B30 | 0.055 nM
36 | B31 | 0.063 nM
37 | B32 | 0.055 nM
38 | B5 | 0.049 nM
39 | B33 | 0.05 nM
40 | B34 | 0.076 nM
41 | B35 | 0.062 nM
